The test system of one data set is COc1ccc2[nH]cc(CCN)c2c1. In words: purified protein. Particulars: acetyl-CoA 0.5 mM co-substrate, 100 mM potassium phosphate, pH 8.8 (or varying pH), 55 °C (general assay).
For a further data set, the system named is NCCc1c[nH]c2ccc(O)cc12. In words: purified protein. The note with it: acetyl-CoA 0.5 mM co-substrate, 100 mM potassium phosphate, pH 8.8 (or varying pH), 55 °C (general assay).

Drawing on PMC11505474, “Functional Characterization of the Ciliate Stylonychia lemnae Serotonin N-Acetyltransferase, a Pivotal Enzyme in Melatonin Biosynthesis and Its Overexpression Leads to Peroxidizing Herbicide Tolerance in Rice” (Antioxidants, 2024), this text covers Km for one substance.

The Km is the substrate concentration at which the rate is half of its maximum. Take “SlSNAT (Stylonychia lemnae serotonin N-acetyltransferase) (Stylonychia lemnae)”: the Km in the data set with COc1ccc2[nH]cc(CCN)c2c1 was found to be 246 µM; with NCCc1c[nH]c2ccc(O)cc12, 776 µM.
